Assay results published in patent US20090053246A1.

Biological target: human C1q (R&D Systems) (human) (UniProt P02745)
Assay: C1q ELISA, absorbance at 450 nm

Sequence of UniProt P02745 (P02745 23-245 limits assumed, chain 1 of 3): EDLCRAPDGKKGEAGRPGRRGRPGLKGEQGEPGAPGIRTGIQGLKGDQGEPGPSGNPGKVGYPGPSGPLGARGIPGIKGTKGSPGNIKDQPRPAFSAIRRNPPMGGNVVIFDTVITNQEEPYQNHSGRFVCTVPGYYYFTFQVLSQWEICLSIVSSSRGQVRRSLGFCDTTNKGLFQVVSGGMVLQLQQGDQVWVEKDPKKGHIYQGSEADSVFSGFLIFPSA
Sequence of UniProt P02745 (P02746 28-253 limits assumed, chain 2 of 3, further chain): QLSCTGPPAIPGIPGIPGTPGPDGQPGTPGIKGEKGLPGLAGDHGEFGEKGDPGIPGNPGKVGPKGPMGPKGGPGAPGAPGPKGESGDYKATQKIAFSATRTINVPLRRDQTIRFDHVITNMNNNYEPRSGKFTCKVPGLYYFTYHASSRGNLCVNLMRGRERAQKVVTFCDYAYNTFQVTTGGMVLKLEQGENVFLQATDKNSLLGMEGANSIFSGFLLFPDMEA
Sequence of UniProt P02745 (P02747 29-245 limits assumed, chain 3 of 3, further chain): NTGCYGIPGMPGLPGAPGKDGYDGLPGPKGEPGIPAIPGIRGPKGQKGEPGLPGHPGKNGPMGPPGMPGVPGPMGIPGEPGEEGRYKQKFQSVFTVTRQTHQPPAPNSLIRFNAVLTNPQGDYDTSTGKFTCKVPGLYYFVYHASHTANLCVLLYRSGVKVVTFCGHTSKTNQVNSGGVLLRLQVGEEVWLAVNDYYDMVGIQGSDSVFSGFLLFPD

fold reduction of complement activity (C1q ELISA) against the glycosylated Fc fragment: 2 times
Substance: dCysG1Fc (recombinant aglycosylated IgG1 Fc derivative, twelve amino acid deletion at the amino terminus of the native hinge region) (from UniProt P01857 111-330)
